In US20040141964A1 (GlaxoSmithKline, published 2004):
Residue numbers refer to the chain shown, from its start. Values belong to the binder of their own block, whether it stands above or below them.

Assays:
human IL-18 [1] = molecular target: T1, human IL-18 (human, UniProt Q14116 37-193); experiment: BIAcore optical biosensor, 25 C; mAb captured on anti-rat IgG Fc surface, IL-18 injected
T1 construct: Injected in solution over captured mAb in the BIAcore assays; also called human interleukin-18; recombinant IL-18
T1 sequence (looked up): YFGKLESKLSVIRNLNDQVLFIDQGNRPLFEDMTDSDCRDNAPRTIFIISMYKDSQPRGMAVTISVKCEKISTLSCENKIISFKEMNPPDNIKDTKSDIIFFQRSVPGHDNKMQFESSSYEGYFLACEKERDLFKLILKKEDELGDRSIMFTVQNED
Protocol: (§1) Kinetic data was evaluated using relationships described previously (Karlsson et al, J. Immunol. Meth., 145:229-240 (1991) and which is incorporated by reference in its entirely. The mAb (diluted in HBS buffer, 10 mM HEPES, 150 mM NaCl, 0.01% Tween-20. pH 7.4) was injected over a rabbit anti-mouse IgG Fc or goat anti-rat IgG Fc surface, followed by buffer flow and the RU was recorded. IL-18 (diluted in HBS buffer) was then injected for 180 seconds followed by a buffer flow for 500 seconds and the RU was recorded. The sensor chip surface was regenerated by an injection of 0.1 M phosphoric acid.

human IL-18 [2] = molecular target: T1, human IL-18; experiment: cell-based or functional assay
human IL-18 [3] = molecular target: T1, human IL-18; experiment: BIAcore optical biosensor, 25 C; mAb captured on anti-mouse IgG Fc surface, IL-18 injected
Protocol: as §1

- Kd (human IL-18 [1]): 39 pM
- Neutralisation IC50 (human IL-18 [2]): 100 pM
B1: rat monoclonal antibody 2C10 (antibody, IgG1, V domains shown)
VH: EVQLQQSGAELVRPGTSVKLSCKVSGEISTGYYFHFVRRRPGQGLEWIGRIDPEDDSTKYAERFKDRATLTAQTSSNTAYLNLSSLTSEDTATYFCTTWRIYRDSSGRPFYVMDAWGQGASVTVSS
VL: DIQMTQSPASLSASLGETVSIECLASEDIYTYLTWYQQKPGKSPQLLIYGANKLQDGVPSRFSGSGSGTQYSLKISGIQPEDEGDYFCLQGSKFPLTFGSGTKLEIKR
notes: Mab purified from a rat hybridoma, isotype IgG1 kappa; also called mAb 2C10; 2C10 (rat)

- Kd (human IL-18 [1]): 150 pM
- Neutralisation IC50 (human IL-18 [2]): 200 pM
B2: rat monoclonal antibody 14B7 (antibody, IgG1, V domains shown)
VH: EVQLQQSGAELVRPGTSVKFSCKVSGDTPTTYYVHFVRQRPGQGLEWIGRIDPEDTSTKYAEKFRNKATFTADPSSNTAYLNLSSLTPEDTATYFCTIMRYHSTYRVYVMDFWGQGTAVTVS
VL: B1 VL with T31S, T34A, G50A, A51T, N52K, K53R, G77D, I78M, G91N, L96V
notes: Mab purified from a rat hybridoma, isotype IgG1 kappa; also called mAb 14B7; 14B7 (rat)

- Kd (human IL-18 [3]): 12000 pM
- Neutralisation IC50 (human IL-18 [2]): 3000 pM
B3: murine monoclonal antibody 13G9 (antibody, IgG1, V domains shown)
VH: QVTLKESGPGILKPSQTLSLTCSFSGFSLSTSGMGIAWVRQPSGKGLEWLADIWWDDNKYYNPSLESQLTISKDTSRNQVFLTITSVDTADSATYYCARHHYDGSSLLPMDYWGQGTSVTVSS
VL: DVVMTQTPLSLPVSLGDQASISCRSSQSLVHSNGNTYLHWYLQKPGQSPKLLIYKVSNRFSGVPDRFSGSGSGTDFTLKISRVEAEDLGVYFCSQSTHVPPYTFGGGTKLEIKR
notes: Mab purified from a mouse hybridoma, isotype IgG1 kappa; also called mAb 13G9; 13G9 (mouse)
